Measured values published in the supplement of paper PMC12042874.
± gives the uncertainty stated by the source.

Assay: amyloid nucleation score (Sup35N fusion, yeast selection) (log enrichment); library NNK2; higher = more nucleation; inactive = no reads after selection
Procedure, shortened: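 Output and input plasmid inserts were sequenced by Illumina after psi-negative yeast carrying Sup35N fused to peptides of 20 random codons had been induced 24 hours with 100 μM copper sulfate and grown 7 days at 30°C on medium lacking adenine and uracil. The nucleation score is the DiMSum log enrichment of output over input reads, centred on the mode score of non-aggregating sequences. Sequences with under 100 input reads were excluded.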

Substance	amyloid nucleation score
NLMWTLNLF	8.253 ± 0.058
NLNDLVVLELYSRFLLNWFE	-0.282 ± 0.46
NLQLVGVMNPDPCESWN	0.222 ± 0.31
NLRPAFHDMDKQCGG	0.045 ± 0.63
NLRWPIFNSWSSG	-0.553 ± 0.27
NLSDLLFLQSTSEGLSLFSI	-0.621 ± 0.64
NLWRLISNLIDVMHPMYSTE	-0.089 ± 1.1
NLYTA	0.49 ± 0.29
NMCQPMCVIVDWIIFISCVG	2.49 ± 0.063
NMDSGLVMVVLVCDDYMTTT	0.119 ± 0.61
NMEQFTRSIKSIGKRFTVTV	-0.471 ± 0.76
NMTHEA	-0.219 ± 0.63
NNELDRISRTVCLWWVG	-0.239 ± 0.65
NNHGLRTYIGPYISWLIYFS	2.53 ± 0.17
NNNKI	inactive
NNRQK	0.63 ± 0.43
NNRWFRRGLGLSLDWTDCLS	-0.492 ± 1.1
NNRWVRKVSDYRVSC	0.243 ± 0.64
NNSPVSPDGCLLGSSVQYWY	-0.375 ± 1.1
NNSQEFSSYTWMNYLLIVKW	-1.02 ± 1
NNSWQINIYNGVTRLIRVRA	4.7 ± 0.039
NNSYTGPVSCNHVAGCGTGH	-0.387 ± 1.1

Substance	amyloid nucleation score
NNYATCNVHCMFMMI	10.18 ± 0.05
NNYIVTW	0.233 ± 0.74
NPGGMQDEQEVVIWAPTRFL	-0.161 ± 0.39
NPLQRTVYWFIIKRDCFHSV	-1.46 ± 0.45
NQCISDPNSCSSCALL	inactive
NQLIGHVFSFVDKSKSFSSS	0.243 ± 0.56
NQQPKSLLYVSRRMQGTMIF	0.089 ± 0.8
NRAVGLLRYTMVMGT	0.026 ± 1.1
NRCRNNGQLRGQCICGSVCL	-0.284 ± 0.39
NRDKF	-1.07 ± 0.28
NREIMMD	-0.184 ± 1.1
NRETGANCARMPKVNVWEQQ	0.865 ± 0.25
NRKCSAESMTEGVRPLDSHY	inactive
NRKLWVYIFSELSDDGLQFR	inactive
NRNLDGFLPWNVHEAVGL	-0.003 ± 0.42
NRNQRSVDRCGFSWYGTQIG	1.3 ± 0.32
NRPMEGRLKWSMTVLIVSLY	-0.187 ± 0.65
NRSLGNHAEYNHASRLKGDS	-0.658 ± 0.31
NRTCVLSNPFPFPHNIPGVC	-0.815 ± 0.54
NRWAYGVFWHSWFIKSHFG	0.14 ± 1
NRWMRGDTVWNVGWWSPNWG	0.173 ± 0.46
NSELLFLGVEWNRT	-0.142 ± 0.79

Substance	amyloid nucleation score
NSFYRCYVRCIVSVRFLCCH	5.008 ± 0.035
NSHFALDGKSW	-0.711 ± 0.39
NSNLLNTLFWVVT	4.03 ± 0.13
NSNTKTSPIISW	inactive
NSRLLVDGHFIRTFRAFWVN	-1.12 ± 0.56
NSSEINHSKG	-0.788 ± 1.1
NSSTTHAGLVYYYSGKGPRV	inactive
NSSVCVRNRCGVWIDLKGII	5.06 ± 0.095
NSSYTVGHGPDT	inactive
NSTKTRLSSDTTLDFLEATR	-0.299 ± 0.27
NSVFAGRRTRTSFP	0.227 ± 0.62
NSVFFY	-1.63 ± 1.1
NSVLVLAWWVNANCGLREGG	5.454 ± 0.041
NSVTNNIRSWIPHLDKGYGG	-0.487 ± 1.1
NSWASPTVVFIRPVHMLLVL	0.158 ± 0.25
NSYFGRAFNVSMPYKLRWKF	-1.41 ± 1.1
NTEFIFQELRVMSHEVCIHI	inactive
NTELSVMPGRLSNFIKLNVT	-0.248 ± 0.65
NTGSLRYWHCVSSGNSTTGR	inactive
NTGSLWG	-1.41 ± 1.1
NTLRMIPADFPSGRLEQTKV	0.552 ± 0.4
NTLSPFQIEFGGWLMGVLFK	0.611 ± 0.81

Substance	amyloid nucleation score
NTMLAFAKKSRMHFSLLLLV	-0.022 ± 0.37
NTNAHVRMVDLVSGCASQWL	1.75 ± 0.3
NTRCRSVTLMLGFSMESKVH	0.76 ± 0.54
NTSHGFQSNPRGAYERILCV	-0.961 ± 0.63
NTWYLTKADLDRVGAVMVQT	inactive
NVFFSFSMYKDAYNE	-0.937 ± 0.54
NVFLLSVREMSSFLRTTTLG	1.24 ± 0.17
NVFLRPSFRGVHK	2.05 ± 0.092
NVFVCPAFQRTWVWMAVMSW	inactive
NVHRRMSEYVCVDRWEEWVR	0.811 ± 0.67
NVITRGM	0.899 ± 0.38
NVKICFCSVMSSTCRYNRT	7.878 ± 0.064
NVLRMMC	-0.286 ± 0.27
NVMKSLFGRC	0.359 ± 0.48
NVNMVMNNSGKSRLCISENY	-0.19 ± 1
NVQALMN	0.012 ± 0.74
NVVSEEIMVCIVVSDLKRFR	0.619 ± 0.29
NWASKTFYGSYGSRYCQFGE	1.07 ± 0.59
NWIPYVWGWIALIVGSDF	-0.158 ± 0.55
